# Source: patent US20160199440A1 (UNIVERSITY OF ROCHESTER, published 2016)
# T1: Claudin 1 (endogenous, in 16HBE human bronchial epithelial cells) (human, UniProt O95832 1-211)
# T1 sequence (looked up): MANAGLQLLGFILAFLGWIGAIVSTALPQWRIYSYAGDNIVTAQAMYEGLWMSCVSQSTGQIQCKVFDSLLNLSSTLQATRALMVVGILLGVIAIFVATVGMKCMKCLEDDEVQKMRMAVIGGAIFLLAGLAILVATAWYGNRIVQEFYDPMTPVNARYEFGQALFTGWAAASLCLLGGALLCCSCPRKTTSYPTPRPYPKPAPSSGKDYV
# Target: T1, Claudin 1 (endogenous, in 16HBE human …)
# Assay: cell-based or functional assay
Binder,"enhancement of penetration of labeled Synagis antibody (168 kD), 2.4 µM peptide","enhancement of penetration of labeled Synagis antibody (168 kD), 12 µM peptide","increase in FD-40 permeability, 12 µM peptide","increase in FITC-dextran 40 kDa (FD-40) permeability, 2.4 µM peptide","increase in fluorescein (0.4 kDa) permeability, 2.4 µM peptide","increase in fluorescein permeability, 12 µM peptide","increase in FD-40 permeability, 2.4 µM peptide","increase in fluorescein permeability, 2.4 µM peptide"
"H-SSVSQSTGQIQSKVFDSLLNLSSTLQATR-NH2 [Peptide 1a, hCldn1 (53-81, C54,64S)]",2.5 fold,3.2 fold,16.8 fold,11.2 fold,4.1 fold,6.7 fold,,
"H-SILTGVSTLDQSLKQLSNFSQAVSTQSSR-NH2 [Peptide 2a, scrambled peptide]",4.9 fold,5.6 fold,30.5 fold,,,16.4 fold,25.3 fold,5.6 fold
